Four molecules from publication PMC11327358 (Nature Communications, 2024) can be followed below.

Assay [1] deals with S2A5-L1^A (S2A5 with alanine substitution in light chain region 26-30C) (mouse | human). Nature of the assay: BLI.
Assay [2] deals with GTV Gn head domain (residues 19-337) (Guertu virus (GTV), GenBank KT328592.1, UniProt A0A0S2Z2X2). Nature of the assay: ELISA.

“SFTSV Gn head domain protein (residues 20-340, strain WCH97, genotype A) (domain or fragment)” registered a fold decrease of binding affinity against WT S2A5 in assay [1] of 11 fold.

B1: mAb N1D10 (mouse variable regions on human IgG1) (antibody, V domains shown)
VH: EVKLVESGGGLVQPGGSLKLSCAASGFTFSTYTMSWVRQTPEKRLEWVAYISNGGGSTYYPDTVKGRFTISRDNAKNTLYLQMSSLNSEDTAMYYCARSYGNFDVWGAGTTVTVSS
VL: DVVMTQTPLSLPVSFGDQVSISCRSSQSLANSYGNTYLSWYLHKPGQSPQLLIYGISKRFSGVPDRFSGSGSGTDFTLKISTIKPEDLGMYYCLQGTHQPWTFGGGTKLEIK
In the case of B1, in assay [2], the binding result was “binds”.

B2: mAb S2A5 (mouse variable regions on human IgG1) (antibody, V domains shown)
VH: EVQLQQSGPELVKPGASVKVSCKASGYSFSDDNMYWVKQSHGKSLEWIGYIDPDNGGTSYNQKFKGKATLTVDKSSSTAFMHLNSLTSEDSAVYYCAREDYYGSRAMDYWGQGTSVTVSS
VL: DIVLTQSPASLAVSLGQRATISCKASQSVDYAGDSYMNWYQQKPGQPPKLLIYAASNLESAIPARFSGSGSGTDFTLNIHPVQEEDAATYYCQQSYEDPRTFGGGTKLEIK
As for B2, the binding result in assay [2] was “binds”.

B3: mAb B1G11 (mouse variable regions on human IgG1) (antibody, V domains shown)
VH: EVKLMESGGGLVQPGDSLRLSCAISGFTFSDYYMSWVRQPPGKALEWLGFIRNKAKGYTTEYSASVKGRFTISRDNSQSILYLQMNTLRAEDSATYYCARDYRYDDEYYYAMDYWGQGTSVTVSS
VL: GVVMTQTTSSLSASLGDRVTISCSASQGISNYLNWYQQKPDGTVKLLIYYTSILHSGVPSRFSGSGSGTDYSLTISNLEPEDIATYYCQQYSKFPRTFGGGTKLEIK
For the molecule B3, in assay [2], the binding result was “binds”.
